Source: paper PMC8528422 (Science Advances, 2021)
Changes are numbered by the printed parent chain. In names and notes the source's numbering stands.

B1: FleN truncated by 25 amino acids at the C terminus, residues 1 to 255 (domain or fragment, Pseudomonas aeruginosa, UniProt G3XD64 1-255, looked up)
chain: MKQMGSMHPVQVIAVTGGKGGVGKTNVSVNLALALADLGRRVMLLDADLGLANVDVLLGLTPKRTLADVIEGRCELRDVLLLGPGGVRIVPAASGTQSMVHLSPMQHAGLIQAFSDISDNLDVLVVDTAAGIGDSVVSFVRAAQEVLLVVCDEPTSITDAYALIKLLNRDHGMTRFRVLANMAHSPQEGRNLFAKLTKVTDRFLDVALQYVGVIPYDESVRKAVQKQRAVYEAFPRSKASLAFKAVAQKVDSWPL
B2: FleN, full length (residues 1 to 280), wild type (natural protein, Pseudomonas aeruginosa, UniProt G3XD64 1-280, looked up)
chain: MKQMGSMHPVQVIAVTGGKGGVGKTNVSVNLALALADLGRRVMLLDADLGLANVDVLLGLTPKRTLADVIEGRCELRDVLLLGPGGVRIVPAASGTQSMVHLSPMQHAGLIQAFSDISDNLDVLVVDTAAGIGDSVVSFVRAAQEVLLVVCDEPTSITDAYALIKLLNRDHGMTRFRVLANMAHSPQEGRNLFAKLTKVTDRFLDVALQYVGVIPYDESVRKAVQKQRAVYEAFPRSKASLAFKAVAQKVDSWPLPANPRGHLEFFVERLVQHPATGSAV
B3: FleN D48A (natural protein, Pseudomonas aeruginosa, UniProt G3XD64 1-280, looked up)
chain: B2 chain with D48A
B4: FleN L263W (natural protein, Pseudomonas aeruginosa, UniProt G3XD64 1-280, looked up)
chain: B2 chain with L263W
B5: FleQ AAA+ ATPase (central) domain, residues 142 to 395 (domain or fragment)
chain: not shown
modifications: biotin (EZ-Link NHS-PEG4-Biotin) for the BLI assay

What was measured:
cross-linking = target: the molecule itself; assay: cross-linking
[1] = target: FleQ, full length (FleQFL) (Pseudomonas aeruginosa, UniProt G3XCV0 1-490, biotin (EZ-Link NHS-PEG4-Biotin) for the BLI assay); assay: BLI
Chain of FleQ, full length (FleQFL) (G3XCV0 whole entry): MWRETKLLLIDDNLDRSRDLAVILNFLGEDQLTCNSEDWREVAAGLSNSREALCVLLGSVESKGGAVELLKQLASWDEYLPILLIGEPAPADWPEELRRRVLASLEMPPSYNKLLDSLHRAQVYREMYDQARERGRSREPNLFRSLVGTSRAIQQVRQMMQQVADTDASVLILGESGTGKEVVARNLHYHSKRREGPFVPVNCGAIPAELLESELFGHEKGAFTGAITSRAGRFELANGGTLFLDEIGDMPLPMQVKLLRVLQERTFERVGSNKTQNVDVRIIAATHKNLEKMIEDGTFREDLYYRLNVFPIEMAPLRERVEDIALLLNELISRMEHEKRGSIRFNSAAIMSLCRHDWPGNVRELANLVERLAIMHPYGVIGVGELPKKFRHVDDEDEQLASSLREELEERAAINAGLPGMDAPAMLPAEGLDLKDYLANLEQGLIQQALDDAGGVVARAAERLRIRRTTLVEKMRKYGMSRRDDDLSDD

crystal structure = target: the molecule itself; assay: crystal structure
[2] = target: B2; assay: BLI

B1
stoichiometry N (cross-linking): 2

B2
Kd [1]: 340 nM
stoichiometry N (crystal structure): 2

B3
binding result [1]: binds

B4
fold change of KD against WT FleN [1]: 100 fold
stoichiometry N (cross-linking): 2

B5
Kd [2]: 260 nM
